Assay results reported in patent US20210393776A1 (FABION PHARMACEUTICALS, published 2021).
Read-outs that look alike come from different tables or passages of the source.

Legend:
[1] = molecular target: T1, full length human EpCAM on CHO cells (human, UniProt P16422 24-314); assay: flow cytometry on CHO cells stably expressing full length human EpCAM, PE detection
T1 construct: CHO cells stably expressing full length human EpCAM; also called hu-EpCAM-FL; human EpCAM-FL
T1 sequence: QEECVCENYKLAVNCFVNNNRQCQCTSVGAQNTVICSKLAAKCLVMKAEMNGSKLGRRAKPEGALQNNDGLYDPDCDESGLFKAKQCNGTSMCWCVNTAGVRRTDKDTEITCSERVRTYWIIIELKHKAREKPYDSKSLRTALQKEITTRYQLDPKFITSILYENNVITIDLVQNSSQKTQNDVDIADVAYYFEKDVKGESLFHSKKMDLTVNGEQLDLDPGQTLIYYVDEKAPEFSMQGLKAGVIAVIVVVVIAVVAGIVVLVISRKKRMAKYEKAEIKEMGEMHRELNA

[2] = molecular target: T2, human CD3epsilonAA1-27.Fc (human); assay: ELISA, immobilised antigen, biotinylated protein, streptavidin-HRP, ABTS, OD405
T2 construct: also called recombinant human CD3epsilon N-terminal peptide (aa1-27.Fc fusion); CD3epsilon N-terminal amino acid 1-27 peptide Fc fusion

[3] = molecular target: T3, recombinant cyno CD3epsilon/delta Fc(K-H) heterodimer (cynomolgus); assay: as above
T3 construct: also called cynomolgus CD3epsilon/delta; recombinant cyno CD3epsilon/delta heterodimeric Fc protein; copies: 1 + 1

[4] = molecular target: T4, human CD3 on cells (Jurkat cells; T cells in human PBMCs) (human, UniProt P07766 23-207); assay: flow cytometry on Jurkat cells, biotinylated protein, streptavidin-PE
T4 construct: whole, on cells; the other chains of the complex are present on the cells; also called CD3 on Jurkat cells; CD3 on T cells in PBMC preparation

[5] = molecular target: T3, recombinant cyno CD3epsilon/delta …; assay: ELISA, immobilised antigen, biotinylated protein, streptavidin-HRP, ABTS, OD405; remark: listed apart in the source
[6] = molecular target: T2, human CD3epsilonAA1-27.Fc; assay: as above; remark: listed apart in the source
[7] = molecular target: T1, full length human EpCAM on CHO cells; assay: flow cytometry on CHO cells stably expressing full length human EpCAM, PE detection; remark: listed apart in the source
[8] = molecular target: T1, full length human EpCAM on CHO cells; assay: as above; remark: listed apart in the source
[9] = molecular target: T3, recombinant cyno CD3epsilon/delta …; assay: ELISA, immobilised antigen, biotinylated protein, streptavidin-HRP, ABTS, OD405; remark: listed apart in the source
[10] = molecular target: T2, human CD3epsilonAA1-27.Fc; assay: as above; remark: listed apart in the source

B1: anti EpCAM scFv fusion to the LC alone of OKT3 Fab (bispecific antibody)
heavy: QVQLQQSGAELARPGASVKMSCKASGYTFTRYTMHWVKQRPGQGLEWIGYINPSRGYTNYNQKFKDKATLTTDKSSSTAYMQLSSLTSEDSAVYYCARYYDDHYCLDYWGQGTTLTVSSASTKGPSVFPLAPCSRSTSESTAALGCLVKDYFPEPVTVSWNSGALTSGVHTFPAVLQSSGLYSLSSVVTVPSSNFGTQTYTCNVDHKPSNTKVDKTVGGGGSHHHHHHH
light: QVQLQQSGGGLVQPGGSLRLSCAASGFTFSNYWMSWVRQAPGKGLEWVANIKQDGSEKFYVDSVKGRFTISRDNAKNSLYLQMNSLRAEDMAVYYCARVGGAWELGYWGQGTLVTVSAGGGGSGGGGSGGGGSGAQSVLTQPPSVSGAPGQRVTISCTGSSSNIGSYYGVHWYQQIPGTAPKLLIYSDTNRPSGVPDRFSGSKSGTSASLAITGLQAEDEADYYCQSYDSSLSGRVFGGGTKVTVLGRAQIVLTQSPAIMSASPGEKVTMTCSASSSVSYMNWYQQKSGTSPKRWIYDTSKLASGVPAHFRGSGSGTSYSLTISGMEAEDAATYYCQQWSSNPFTFGSGTKLEINRTVAAPSVFIFPPSDEQLKSGTASVVCLLNNFYPREAKVQWKVDNALQSGNSQESVTEQDSKDSTYSLSSTLTLSKADYEKHKVYACEVTHQGLSSPVTKSFNRGEC
notes: also called EpCAM1.1×OKT3 Fab fusion, LC only
Does B1 bind [1]?
Result: binds

Does B1 bind [2]?
Result: no binding (tested: about 80 nM (last point; axis to 100 nM))

Does B1 bind [3]?
Result: no binding (tested: about 80 nM (last point; axis to 100 nM))

Does B1 bind [4]?
Result: no binding

B2: anti EpCAM scFv fusion to both HC and LC of OKT3 Fab (bispecific antibody)
heavy: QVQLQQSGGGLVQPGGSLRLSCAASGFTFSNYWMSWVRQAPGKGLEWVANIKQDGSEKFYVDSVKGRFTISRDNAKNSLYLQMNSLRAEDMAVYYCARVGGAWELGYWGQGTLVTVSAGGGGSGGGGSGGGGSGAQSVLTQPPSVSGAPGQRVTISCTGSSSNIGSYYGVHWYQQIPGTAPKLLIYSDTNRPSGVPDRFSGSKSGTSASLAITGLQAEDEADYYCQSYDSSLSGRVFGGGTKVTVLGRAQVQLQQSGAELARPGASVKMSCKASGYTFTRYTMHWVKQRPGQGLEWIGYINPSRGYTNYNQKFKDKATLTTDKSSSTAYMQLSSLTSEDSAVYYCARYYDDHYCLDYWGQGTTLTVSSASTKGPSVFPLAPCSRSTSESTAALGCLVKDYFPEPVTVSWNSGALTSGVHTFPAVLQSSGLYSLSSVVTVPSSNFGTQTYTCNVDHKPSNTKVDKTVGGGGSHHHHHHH
light: B1 light
notes: also called EpCAM1.1×OKT3 Fab fusion, HC and LC
Which results are given for B2?
binding result [1]: binds; binding result [2]: no binding (tested: about 80 nM (last point; axis to 100 nM)); binding result [3]: no binding (tested: about 80 nM (last point; axis to 100 nM)); binding result [4]: no binding

B3: EpCAM1.1-(L)-hu-1F3.1 Fab (bispecific antibody)
heavy chain Fd (VH-CH1), unfused: EVQLVESGGGLVQPGGSLRLSCAASGFTFSTYAMNWVRQAPGKGLEWVSRIRSKYNNYATYYADSVKDRFTISRDDSKNTLYLQMNSLRAEDTAVYYCARHGNFGNSYVSWFAYWGQGTMVTVSSASTKGPSVFPLAPCSRSTSESTAALGCLVKDYFPEPVTVSWNSGALTSGVHTFPAVLQSSGLYSLSSVVTVPSSNFGTQTYTCNVDHKPSNTKVDKTVGGGGSHHHHHHH
light chain with anti-EpCAM scFv EpCAM1.1 at the N-terminus: QVQLQQSGGGLVQPGGSLRLSCAASGFTFSNYWMSWVRQAPGKGLEWVANIKQDGSEKFYVDSVKGRFTISRDNAKNSLYLQMNSLRAEDMAVYYCARVGGAWELGYWGQGTLVTVSAGGGGSGGGGSGGGGSGAQSVLTQPPSVSGAPGQRVTISCTGSSSNIGSYYGVHWYQQIPGTAPKLLIYSDTNRPSGVPDRFSGSKSGTSASLAITGLQAEDEADYYCQSYDSSLSGRVFGGGTKVTVLGRAQAVVTQEPSLTVSPGGTVTLTCRSSTGAVTTSNYANWVQQKPGQAPRGLIGGTNKRAPGTPARFSGSLLGGKAALTLSGVQPEDEAEYYCALWYSNLWVFGGGTKLTVLGQPKAAPSVTLFPPSSEELQANKATLVCLISDFYPGAVTVAWKADSSPVKAGVETTTPSKQSNNKYAASSYLSLTPEQWKSHRSYSCQVTHEGSTVEKTVAPTECS
notes: member of group m19; also called EpCAM1.1-(L)-hu-1F3 Fab
Does B3 bind [5]?
Result: binds

Does B3 bind [6]?
Result: binds

Does B3 bind [7]?
Result: binds

B4: EpCAM1.1-(H+L)-hu-1F3.1 Fab (bispecific antibody)
heavy chain Fd with anti-EpCAM scFv EpCAM1.1 at the N-terminus: QVQLQQSGGGLVQPGGSLRLSCAASGFTFSNYWMSWVRQAPGKGLEWVANIKQDGSEKFYVDSVKGRFTISRDNAKNSLYLQMNSLRAEDMAVYYCARVGGAWELGYWGQGTLVTVSAGGGGSGGGGSGGGGSGAQSVLTQPPSVSGAPGQRVTISCTGSSSNIGSYYGVHWYQQIPGTAPKLLIYSDTNRPSGVPDRFSGSKSGTSASLAITGLQAEDEADYYCQSYDSSLSGRVFGGGTKVTVLGRAEVQLVESGGGLVQPGGSLRLSCAASGFTFSTYAMNWVRQAPGKGLEWVSRIRSKYNNYATYYADSVKDRFTISRDDSKNTLYLQMNSLRAEDTAVYYCARHGNFGNSYVSWFAYWGQGTMVTVSSASTKGPSVFPLAPCSRSTSESTAALGCLVKDYFPEPVTVSWNSGALTSGVHTFPAVLQSSGLYSLSSVVTVPSSNFGTQTYTCNVDHKPSNTKVDKTVGGGGSHHHHHHH
light chain with anti-EpCAM scFv EpCAM1.1 at the N-terminus: B3 light chain with anti-EpCAM scFv EpCAM1.1 at the N-terminus
notes: member of group m19; also called EpCAM1.1-(H+L)-hu-1F3 Fab
Does B4 bind [5]?
Result: binds

Does B4 bind [6]?
Result: binds

Does B4 bind [7]?
Result: binds

B5: EpCAM2.2-(L)-hu-1F3.1 Fab (bispecific antibody)
heavy chain Fd (VH-CH1), unfused: B3 heavy chain Fd (VH-CH1), unfused
light chain with anti-EpCAM scFv EpCAM2.2 at the N-terminus: QVQLQESGPGLVKPSETLTLTCSVSGGSISGYYWSWIRQPPGMGLEWIGSVHHSGSTSYNPSLKSRVTISVDTSKNQFSLKLNSVTAADTAVYYCARYRGSGLDYWGQGTLVTVSSGGGGSGGGGSGGGGSQSVLTQPPSVSAAPGQKVTISCSGDSSNIGKNYVSWYQQLPGTAPKLLIYENNERPSGVPDRFSGSKSGTSATLGITGLQTGDEADYYCAAWDTSLSARVFGGGTKVTVLGRAQAVVTQEPSLTVSPGGTVTLTCRSSTGAVTTSNYANWVQQKPGQAPRGLIGGTNKRAPGTPARFSGSLLGGKAALTLSGVQPEDEAEYYCALWYSNLWVFGGGTKLTVLGQPKAAPSVTLFPPSSEELQANKATLVCLISDFYPGAVTVAWKADSSPVKAGVETTTPSKQSNNKYAASSYLSLTPEQWKSHRSYSCQVTHEGSTVEKTVAPTECS
notes: member of groups m21 and m31; also called EpCAM2.2-(L)-hu-1F3 Fab
Which results are given for B5?
binding result [8]: binds; binding result [9]: binds; EC50 (read off the curve) [10]: ~2 nM

B6: EpCAM2.2-(H)-hu-1F3.1 Fab (bispecific antibody)
heavy chain Fd with anti-EpCAM scFv EpCAM2.2 at the N-terminus: QVQLQESGPGLVKPSETLTLTCSVSGGSISGYYWSWIRQPPGMGLEWIGSVHHSGSTSYNPSLKSRVTISVDTSKNQFSLKLNSVTAADTAVYYCARYRGSGLDYWGQGTLVTVSSGGGGSGGGGSGGGGSQSVLTQPPSVSAAPGQKVTISCSGDSSNIGKNYVSWYQQLPGTAPKLLIYENNERPSGVPDRFSGSKSGTSATLGITGLQTGDEADYYCAAWDTSLSARVFGGGTKVTVLGRAEVQLVESGGGLVQPGGSLRLSCAASGFTFSTYAMNWVRQAPGKGLEWVSRIRSKYNNYATYYADSVKDRFTISRDDSKNTLYLQMNSLRAEDTAVYYCARHGNFGNSYVSWFAYWGQGTMVTVSSASTKGPSVFPLAPCSRSTSESTAALGCLVKDYFPEPVTVSWNSGALTSGVHTFPAVLQSSGLYSLSSVVTVPSSNFGTQTYTCNVDHKPSNTKVDKTVGGGGSHHHHHHH
light chain, unfused: QAVVTQEPSLTVSPGGTVTLTCRSSTGAVTTSNYANWVQQKPGQAPRGLIGGTNKRAPGTPARFSGSLLGGKAALTLSGVQPEDEAEYYCALWYSNLWVFGGGTKLTVLGQPKAAPSVTLFPPSSEELQANKATLVCLISDFYPGAVTVAWKADSSPVKAGVETTTPSKQSNNKYAASSYLSLTPEQWKSHRSYSCQVTHEGSTVEKTVAPTECS
notes: member of groups m21 and m31
What does the source list for B6?
binding result [8]: binds; EC50 (read off the curve) [9]: ~2 nM

B7: EpCAM2.2-(H+L)-hu-1F3.1 MSFP (bispecific antibody)
heavy: B6 heavy chain Fd with anti-EpCAM scFv EpCAM2.2 at the N-terminus
light: B5 light chain with anti-EpCAM scFv EpCAM2.2 at the N-terminus
notes: (H + L) format has a GlyArgAla linker on both chains; His tag at the C-terminus of the Fd; also called double fusion of EpCAM2.2 scFv to both the HC and LC of hu-1F3.1 Fab
B7 was tested. Which “EC50 (read off the curve)” value [9] did it give?
Its value is about 3 nM.

And the “EC50 (read off the curve)” value [10]?
Its value is about 3 nM.
